In the supplement of paper PMC11136658:

Test system: peptide library, one residue held at a place counted from the Y acceptor
Assay: relative phosphorylation of the sub-library (ratio to the mean residue at this position); higher = residue favoured
In short: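 Peptide library mixtures, biotinylated and centred on Tyr, each fixed one residue at one position from −5 to +5. Purified recombinant kinases were incubated with them for 90 min in 384-well plates alongside 50 μM ATP and γ-32P-ATP, and the captured, rinsed peptides on streptavidin membranes were measured by phosphorimaging and ImageQuant. Normalization divided each position's intensities by the sum of its 18 randomized residues (16 for the Ser/Thr-free library) and multiplied by that number, so that values give phosphorylation relative to the mean randomized residue.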

Sequence of INSR, construct: aa1110-end, human (P06213 1110-1382, looked up): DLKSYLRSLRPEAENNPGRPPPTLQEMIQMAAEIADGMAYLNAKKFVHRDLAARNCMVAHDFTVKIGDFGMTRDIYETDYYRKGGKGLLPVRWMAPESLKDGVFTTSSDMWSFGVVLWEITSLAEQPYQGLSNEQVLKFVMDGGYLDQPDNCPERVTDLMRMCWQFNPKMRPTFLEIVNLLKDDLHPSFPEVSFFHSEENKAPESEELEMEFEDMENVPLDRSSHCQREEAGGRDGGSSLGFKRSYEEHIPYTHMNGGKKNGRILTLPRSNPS

INSR, construct: aa1110-end, human (from UniProt P06213)
relative phosphorylation
Conditions | at +1 | at +2 | at +3 | at +4 | at +5 | at -1 | at -2 | at -3 | at -4 | at -5
A fixed | 1.55 | 0.678 | 0.593 | 0.95 | 0.917 | 1.09 | 1.09 | 0.925 | 1.09 | 1.07
D fixed | 0.383 | 0.584 | 0.264 | 1.04 | 0.792 | 2.65 | 1.14 | 1.34 | 1.3 | 1.14
E fixed | 0.627 | 1.31 | 0.234 | 0.976 | 0.731 | 1.14 | 1.26 | 1.48 | 1.31 | 0.983
F fixed | 1.41 | 1.13 | 1.62 | 1.02 | 1.56 | 0.696 | 0.621 | 0.912 | 1.03 | 0.834
G fixed | 0.731 | 0.419 | 0.545 | 0.809 | 0.858 | 0.554 | 1.24 | 0.872 | 1.36 | 1.23
H fixed | 1.67 | 0.915 | 1.47 | 1.16 | 1.17 | 1.16 | 0.95 | 1.11 | 0.965 | 0.975
I fixed | 1.21 | 1.16 | 1.92 | 0.902 | 0.978 | 1.04 | 0.87 | 0.616 | 0.817 | 0.935
K fixed | 0.275 | 0.602 | 0.475 | 0.951 | 0.919 | 0.27 | 0.8 | 0.861 | 0.835 | 1.11
L fixed | 0.986 | 1.35 | 1.61 | 0.841 | 1.14 | 0.981 | 0.957 | 0.867 | 0.879 | 0.913
M fixed | 2.41 | 1.53 | 1.74 | 1.16 | 1.08 | 0.789 | 0.743 | 0.929 | 0.804 | 0.976
N fixed | 0.312 | 0.941 | 0.347 | 0.762 | 0.813 | 2.16 | 1.25 | 1.51 | 0.939 | 1.22
P fixed | 0.317 | 0.706 | 0.421 | 0.704 | 1.05 | 1.04 | 1.29 | 0.905 | 1.17 | 0.956
Q fixed | 0.805 | 0.811 | 0.46 | 1.19 | 0.806 | 0.747 | 1.22 | 1.06 | 1.22 | 1.1
R fixed | 0.227 | 0.868 | 0.706 | 0.953 | 1.02 | 0.266 | 0.831 | 0.913 | 0.913 | 1.13
S fixed | 0.926 | 0.804 | 0.534 | 1.07 | 1.04 | 0.901 | 1.18 | 1.09 | 0.814 | 0.896
T fixed | 0.946 | 0.781 | 0.673 | 0.843 | 0.84 | 0.97 | 1.08 | 0.941 | 0.731 | 0.828
V fixed | 1.45 | 1.08 | 1.13 | 0.968 | 0.937 | 0.989 | 0.796 | 0.698 | 0.746 | 0.798
W fixed | 1.76 | 2.34 | 3.26 | 1.69 | 1.35 | 0.558 | 0.684 | 0.978 | 1.08 | 0.902
pThr fixed | 1.28 | 0.717 | 0.229 | 0.55 | 0.612 | 1.28 | 1.01 | 1.11 | 1.09 | 0.769
pTyr fixed | 1.36 | 2.45 | 0.487 | 1.48 | 0.585 | 4.11 | 1.68 | 1.51 | 1.28 | 0.991
